Measured values as given in US10640563B2, “Anti-B7-H3 antibodies and antibody drug conjugates” (AbbVie Inc., priority 2016, dated 2020).

T1: soluble ECD of human B7-H3 (Homo sapiens, UniProt Q5ZPR3)
T1 construct: His tag (6xHis) (C); made in house
T1 sequence (Q5ZPR3 with tags, fused parts or gaps): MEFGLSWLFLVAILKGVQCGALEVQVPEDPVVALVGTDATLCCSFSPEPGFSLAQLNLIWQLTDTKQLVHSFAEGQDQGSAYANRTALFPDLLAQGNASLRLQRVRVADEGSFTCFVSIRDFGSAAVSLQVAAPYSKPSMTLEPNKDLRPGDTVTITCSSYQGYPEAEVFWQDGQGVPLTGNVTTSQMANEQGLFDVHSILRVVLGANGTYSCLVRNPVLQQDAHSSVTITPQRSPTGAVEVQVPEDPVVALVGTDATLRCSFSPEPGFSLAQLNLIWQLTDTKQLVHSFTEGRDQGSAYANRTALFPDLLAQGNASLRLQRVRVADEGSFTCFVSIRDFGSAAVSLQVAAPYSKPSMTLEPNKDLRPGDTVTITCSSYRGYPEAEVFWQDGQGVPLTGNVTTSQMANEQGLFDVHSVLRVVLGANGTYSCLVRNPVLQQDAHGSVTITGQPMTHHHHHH


What was measured:
[1] = molecular target: T1, soluble ECD of human B7-H3; test: Biacore T200 SPR binding kinetics, mAb capture; settings: Biacore T200, Fc capture of mAb, B7-H3 ECD as analyte, 1:1 binding model
Experimental: The binding affinity of the purified anti-B7-H3 monoclonal antibodies was determined by surface […]. […] The binding kinetics were derived from SPR measurements using a Biacore T200 instrument and a mAb capture approach (as described in the materials and methods below).
Biacore T200 SPR instruments were used to measure the binding kinetics of human B7-H3 (analyte) binding to various mAbs (ligands). The assay format was Fc-based capture via immobilized anti-mouse (Fc) (Pierce 31170) or immobilized anti-human (Fc) (Pierce 31125). A standard amine coupling protocol was employed to immobilize the capture reagents via primary amines to the carboxy-methyl (CM) dextran surface of CM5 sensorchips (Biacore); capture antibodies were coupled to a level of approximately 5000 RU. For binding kinetic measurements the assay buffer was HBS-EP+ (Biacore): 10 mM Hepes, pH7.4, 150 mM NaCl, 3 mM EDTA, 0.05% polysorbate 20. During the assay, all measurements were referenced against the capture surface alone. Each assay cycle consisted of the following steps: 1) Capture of ligand to approximately 50 RU; 2) Analyte injection over both reference and test surface, 240 μL at 80 μL/min, after which the dissociation was monitored for 900 seconds at 80 μL/min; 3) Regeneration of capture surface with low pH glycine. For kinetic determinations analyte injections were 3-point, 9-fold dilution series of 900 nM, 100 nM and 11.11 nM, buffer only injections were included for secondary referencing. Data were processed and fit to a 1:1 binding model using Biacore T200 Evaluation Software to determine the binding kinetic rate constants, ka (on-rate) and kd (off-rate), and the equilibrium dissociation constant (affinity, KD).

[2] = system: soluble ECD of cyno B7-H3; test: Biacore T200 SPR binding kinetics, mAb capture; parameters: species or system cynomolgus monkey; settings: Biacore T200, Fc capture of mAb, B7-H3 ECD as analyte, 1:1 binding model
Sequence of soluble ECD of cyno B7-H3 (as listed by the source): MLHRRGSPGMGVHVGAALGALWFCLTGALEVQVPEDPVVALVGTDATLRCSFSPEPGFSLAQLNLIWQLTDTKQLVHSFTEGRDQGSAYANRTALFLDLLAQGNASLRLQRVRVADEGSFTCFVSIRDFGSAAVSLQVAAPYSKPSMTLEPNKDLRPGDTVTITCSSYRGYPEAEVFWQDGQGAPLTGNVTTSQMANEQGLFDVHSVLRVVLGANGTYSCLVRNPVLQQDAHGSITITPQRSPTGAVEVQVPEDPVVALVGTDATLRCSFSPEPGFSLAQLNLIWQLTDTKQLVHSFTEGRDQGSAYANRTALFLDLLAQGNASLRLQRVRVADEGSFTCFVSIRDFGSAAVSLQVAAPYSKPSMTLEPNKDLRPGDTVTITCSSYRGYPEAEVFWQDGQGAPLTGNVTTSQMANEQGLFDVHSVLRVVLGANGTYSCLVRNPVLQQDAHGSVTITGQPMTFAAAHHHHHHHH

[3] = Aggregation of conjugates by SEC; assay type: physicochemical
[4] = system: HCC38 cell line; test: Cell cytotoxicity of ADCs in HCC38 cell line; assay type: cell-based; settings: CZ conjugates
Experimental: The humanization of chAb18 generated 10 variants (described above in Table 9) that retained binding to human and cyno B7-H3 as assessed by FACS (the method of which is described above in Example 6). These variants were further characterized for binding by SPR and were successfully conjugated to the Bcl-xL inhibitor synthon CZ using Method A (described above) and assessed for cell cytotoxicity as described in Example 7. The parental chAb18 from which the variants were derived was also tested as a comparator. All humanized variants had similar binding properties as assessed by biacore, and retained binding activity to cell surface expressed as conjugates with the CZ synthon. The cytotoxicity of all of the variants as CZ synthons were similar to the chAb18 from which they were derived.
Humanized chAb18 variants were conjugated to the CZ synthon and tested for cytotoxicity in HCC38 cell line.

[5] = Table 10, CZ conjugates of Ab18 variants
[6] = Table 14, CZ conjugates of Ab3 variants

| Molecule | huB7-H3 ka [1] | huB7-H3 kd [1] | cynoB7-H3 ka [2] | cynoB7-H3 kd [2] | % agg by SEC [3, 5] | also measured |
| --- | --- | --- | --- | --- | --- | --- |
| Ab16 (antibody, V domains shown) VH: EVKLLESGGGLVQPGGSLKLSCAASGFDFSRYWMSWVRQAPGKGLEWIGEINPDSSTINYTPSLKDKFIISRDNAKNTLYLQMSKVRSEDTALYYCARPGFGNYIYAMDYWGQGTSVTVSS VL: DIQMTQTTSSLSASLGDRVTINCRASQDISNFLNWYQQKPDGTVKLLIYYTSRLYLGVPSRFSGSGSGTDYSLTISNLEQEDIATYFCQQGNTLPPTFGGGTKLEIK | 140000 M⁻¹ s⁻¹ | 0.0032 s⁻¹ | 750000 M⁻¹ s⁻¹ | 0.0056 s⁻¹ |  |  |
| Ab17 (antibody, V domains shown) VH: EVKLVESGGGLVQPGGSLKLSCAASGFTFSSYIMSWVRQTPEKRLEWVASIVSSNITYYPDSMKGRFTISRDNARNILYLQMSSLKSEDTAMYYCARSGTRAWFAYWGQGTLVTVSA VL: DIVLTQSPASLAVSLGQRATISCRASKSVSTSAYSYMHWYQQKPGQPPKLLIYLASNLESGVPARFSGSGSGTDFTLNIHPVEEEDAATYYCQHSRELPYTFGGGTKLEIK | 540000 M⁻¹ s⁻¹ | 1.9e-05 s⁻¹ | 510000 M⁻¹ s⁻¹ | 1e-05 s⁻¹ |  |  |
| Ab10 (antibody, V domains shown) VH: DVQLQESGPGLVKPSQSLSLTCTVTGYSITSDYAWNWIRQFPGNRLEWMGHINYSGITNYNPSLKSRISITRDTSKNQFFLQLYSVTTEDTATYFCARRSLFYYYGSSLYAMDYWGQGTSVTVSS VL: DVVMTQSPFSLPVSLGDQASISCRSSQSLVHSNGNTYLHWYLQKPGQSPKLLIYKVSNRFSGVPDRFSGSGSGTDFTLKISRVEAEDLGVYFCSQSTHVPWTFGGGTKLEIK | 41000 M⁻¹ s⁻¹ | 0.00019 s⁻¹ | 200000 M⁻¹ s⁻¹ | 0.0042 s⁻¹ |  |  |
| Ab2 (antibody, V domains shown) VH: QVQLQQPGAELVKPGASVKLSCKASGYTFTSYWMHWVKQRPGQGLEWIGMIHPDSGTTNYNEKFRSKATLTVDKSSSTAYMQLSSLTSEDSAVYYCAVYYGSTYWYFDVWGTGTTVTVSS VL: DVVMTQTPLSLPVSLGDQAYISCRSSQSLVHINGNTYLHWYRQKPGQSPKLLIYKVSNRFSGVPDRFSGSGSGTDFTLKISRVEAEDLGVYFCSQSTHFPFTFGSGTKLEIK | 120000 M⁻¹ s⁻¹ | 0.0029 s⁻¹ | 230000 M⁻¹ s⁻¹ | 0.011 s⁻¹ |  |  |
| Ab13 (antibody, V domains shown) VH: DVQLQESGPDLVKPSQSLSLTCTVTGYSITSGYSWHWIRQFPGNKLEWMGYIHSSGSTNYNPSLKSRISINRDTSKNQFFLQLNSVTTEDTATYYCAGYDDYFEYWGQGTTLTVSS VL: DIVMTQSQKFMSTSVGDRVSVTCKASQNVGFNVAWYQQKPGQSPKALIYSASYRYSGVPDRFTGSGSGTDFTLTISNVQSEDLAEYFCQQYNSYPFTFGSGTKLEIK | 330000 M⁻¹ s⁻¹ | 0.0058 s⁻¹ | 440000 M⁻¹ s⁻¹ | 0.0037 s⁻¹ |  |  |
| huAb18v2-CZ (conjugate) VH: EVQLVQSGAEVKKPGSSVKVSCKASGYSFTSYTIHWVRQAPGQGLEWMGYINPNSRNTDYAQKFQGRVTLTADKSTSTAYMELSSLRSEDTAVYYCARYSGSTPYWYFDVWGQGTTVTVSS VL: DIQLTQSPSFLSASVGDRVTITCRASSSVSYMNWYQQKPGKAPKLLIYATSNLASGVPSRFSGSGSGTEFTLTISSLQPEDFATYYCQQWSSNPLTFGQGTKLEIK |  |  |  |  | 3.3% |  |
| huAb18v10-CZ (conjugate) VH: EVQLVQSGAEVKKPGSSVKVSCKASGYSFTSYTIHWVRQAPGQGLEWMGYINPNSRNTDYAQKFQGRVTLTADKSTSTAYMELSSLRSEDTAVYYCARYSGSTPYWYFDVWGQGTTVTVSS VL: DIQLTQSPSFLSASVGDRVTITCRASSSVSYMNWYQQKPGKAPKPWIYATSNLASGVPSRFSVSGSGTEHTLTISSLQPEDFATYYCQQWSSNPLTFGQGTKLEIK |  |  |  |  | 3.2% |  |
| huAb18v5-CZ (conjugate) VH: EVQLVQSGAEVKKPGSSVKVSCKASGYSFTSYTIHWVRQAPGQGLEWMGYINPNSRNTDYNQKFKDRVTITADKSTSTAYMELSSLRSEDTAVYYCARYSGSTPYWYFDVWGQGTTVTVSS VL: EIVLTQSPDFQSVTPKEKVTITCRASSSVSYMNWYQQKPDQSPKLLIKATSNLASGVPSRFSGSGSGTDFTLTINSLEAEDAATYYCQQWSSNPLTFGQGTKLEIK |  |  |  |  | 4.2% | IC50 ([4]; Table 10): 0.12 nM |
| huAb18v8-CZ (conjugate) VH: EVQLVQSGAEVKKPGSSVKVSCKASGYSFTSYTIHWVRQAPGQGLEWIGYINPNSRNTDYNQKFKDRTTLTADRSTSTAYMELSSLRSEDTAVYYCARYSGSTPYWYFDVWGQGTTVTVSS VL: DIQLTQSPSFLSASVGDRVTITCRASSSVSYMNWYQQKPGKAPKPWIYATSNLASGVPSRFSVSGSGTEHTLTISSLQPEDFATYYCQQWSSNPLTFGQGTKLEIK |  |  |  |  | 3.5% | IC50 ([4]; Table 10): 1.3 nM |
| Ab14 (antibody, V domains shown) VH: EVKLVESGGGLVKPGGSLKLSCAASGFTFSSYGMSWVRQTPEKRLEWVATISGGGTNTYYPDSVEGRFTISRDNAKNFLYLQMSSLRSEDTALYYCARHYGSQTMDYWGQGTSVTVSS VL: DIQMTQSPASLSASVGETVTITCRTSGNIHNYLTWYQQKQGKSPQLLVYNAKTLADGVPSRFSGSGSGTQFSLKINSLQPEDFGSYYCQHFWSIMWTFGGGTKLEIK | 110000 M⁻¹ s⁻¹ | 0.0014 s⁻¹ | 690000 M⁻¹ s⁻¹ | 0.003 s⁻¹ |  |  |
| huAb3v3-CZ (conjugate) VH: EVQLVQSGAEVKKPGSSVKVSCKASGYTFSSYWMHWVRQAPGQGLEWIGLIHPDSGSTNYNEMFKNRATLTVDRSTSTAYVELSSLRSEDTAVYFCAGGGRLYFDYWGQGTTVTVSS VL: DVVMTQSPLSLPVTPGEPASISCRSSQSLVHSNGDTYLRWYLQKPGQSPQLLIYKVSNRFSGVPDRFSGSGSGTDFTLKISRVEAEDVGVYFCSQSTHVPYTFGGGTKVEIK |  |  |  |  |  | IC50 ([4]; Table 14): 9.22 nM; % agg by SEC [3, 6]: 2.5% |
| huAb3v1-CZ (conjugate) VH: EVQLVQSGAEVKKPGSSVKVSCKASGYTFSSYWMHWVRQAPGQGLEWMGLIHPDSGSTNYNEMFKNRVTITADKSTSTAYMELSSLRSEDTAVYYCARGGRLYFDYWGQGTTVTVSS VL: DIVMTQSPLSLPVTPGEPASISCRSSQSLVHSNGDTYLRWYLQKPGQSPQLLIYKVSNRFSGVPDRFSGSGSGTDFTLKISRVEAEDVGVYYCSQSTHVPYTFGGGTKVEIK |  |  |  |  |  | IC50 ([4]; Table 14): 0.53 nM; % agg by SEC [3, 6]: 3.3% |
| huAb3v5-CZ (conjugate) VH: EVQLVQSGAEVKKPGSSVKVSCKASGYTFSSYWMHWVRQAPGQGLEWIGLIHPDSGSTNYNEMFKNRATLTVDRSTSTAYMELSSLRSEDTAVYYCAGGGRLYFDYWGQGTTVTVSS VL: DVVMTQSPLSLPVTPGEPASISCRSSQSLVHSNGDTYLRWYLQKPGQSPQLLIYKVSNRFSGVPDRFSGSGSGTDFTLKISRVEAEDVGVYYCSQSTHVPYTFGGGTKVEIK |  |  |  |  |  | IC50 ([4]; Table 14): 0.17 nM; % agg by SEC [3, 6]: 5.9% |
